Assay results: publication PMC9482650, “Quantitative fragmentomics allow affinity mapping of interactomes” (Nature Communications, 2022)

Legend:
Test in all cases: holdup assay
Set-up in all cases: key: below the threshold = too weak to quantify, mostly under pKd 3.1 to 4
[1] = molecular target: IL16_3, Q14005
[2] = molecular target: T1, MPDZ_10, O75970
T1 sequence (O75970 1624-1722, limits assumed, looked up): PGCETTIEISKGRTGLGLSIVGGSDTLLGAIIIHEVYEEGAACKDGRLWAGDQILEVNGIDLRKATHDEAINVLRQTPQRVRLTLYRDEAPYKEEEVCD

[3] = molecular target: DLG1_3, Q12959
[4] = molecular target: T2, ARHGEF11, O15085
T2 sequence (O15085 42-136, limits assumed, looked up): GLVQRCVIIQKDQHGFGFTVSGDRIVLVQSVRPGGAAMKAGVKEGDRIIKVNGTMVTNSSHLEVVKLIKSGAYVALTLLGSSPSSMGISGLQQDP

[5] = molecular target: T3, NHERF3_3, Q5T2W1
T3 sequence (Q5T2W1 238-333, limits assumed, looked up): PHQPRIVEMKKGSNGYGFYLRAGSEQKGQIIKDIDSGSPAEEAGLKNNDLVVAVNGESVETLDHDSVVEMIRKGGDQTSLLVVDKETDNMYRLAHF

[6] = molecular target: PICK1, Q9NRD5
[7] = molecular target: T4, APBA2_2, Q99767
T4 sequence (Q99767 654-744, limits assumed, looked up): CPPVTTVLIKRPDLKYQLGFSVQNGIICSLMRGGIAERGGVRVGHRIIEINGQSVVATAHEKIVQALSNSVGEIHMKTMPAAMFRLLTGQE

[8] = molecular target: SNX27, Q96L92
[9] = molecular target: GRID2IP_2, A4D2P6
[10] = molecular target: TJP1_3, Q07157
[11] = molecular target: GORASP2, Q9H8Y8
[12] = molecular target: MAST1, Q9Y2H9
[13] = molecular target: Inadl_5, Q8NI35
[14] = molecular target: GRIP2_4, Q9C0E4
[15] = molecular target: T5, HTRA3, P83110
T5 sequence (P83110 354-453, limits assumed, looked up): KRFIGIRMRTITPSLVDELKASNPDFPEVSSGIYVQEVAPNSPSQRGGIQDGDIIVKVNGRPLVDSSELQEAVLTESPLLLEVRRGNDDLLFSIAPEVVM

[16] = molecular target: TJP1_2, Q07157
[17] = molecular target: T6, LNX2_2, Q8N448
T6 sequence (Q8N448 334-432, limits assumed, looked up): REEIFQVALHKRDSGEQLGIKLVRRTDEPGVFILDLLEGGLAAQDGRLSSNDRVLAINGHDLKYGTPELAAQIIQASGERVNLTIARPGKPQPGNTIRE

[18] = molecular target: HTRA1, Q92743
[19] = molecular target: Inadl_9, Q8NI35
[20] = molecular target: GOPC, Q9HD26
[21] = molecular target: HTRA2, O43464
[22] = molecular target: MAGI1_1, Q96QZ7
[23] = molecular target: MAGI3_2, Q5TCQ9
[24] = molecular target: Inadl_1, Q8NI35
[25] = molecular target: GRIP2_5, Q9C0E4
[26] = molecular target: T7, DFNB31_3, Q9P202
T7 sequence (Q9P202 811-907, limits assumed, looked up): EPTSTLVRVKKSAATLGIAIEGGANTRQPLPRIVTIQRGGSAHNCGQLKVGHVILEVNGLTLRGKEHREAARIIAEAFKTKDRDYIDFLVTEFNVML

[27] = molecular target: T8, DFNB31_2, Q9P202
T8 sequence (Q9P202 274-371, limits assumed, looked up): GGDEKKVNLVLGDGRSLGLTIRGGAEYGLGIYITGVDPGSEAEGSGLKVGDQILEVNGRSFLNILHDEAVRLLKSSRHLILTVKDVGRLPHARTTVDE

[28] = molecular target: Inadl_4, Q8NI35
[29] = molecular target: T9, LNX2_3, Q8N448
T9 sequence (Q8N448 463-564, limits assumed, looked up): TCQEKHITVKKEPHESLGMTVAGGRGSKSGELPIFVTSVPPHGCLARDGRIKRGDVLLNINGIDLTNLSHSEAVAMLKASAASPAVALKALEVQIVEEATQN

[30] = plain residues with an end cap or a label only (N-terminal biotin on a linker: ado-ado)
[31] = plain residues with an end cap or a label only (N-terminal biotin on a linker: ahx)
[32] = plain residues with an end cap or a label only (N-terminal biotin on a linker: ttds)

Chain of Inadl_9, Q8NI35 (Q8NI35 1530-1615): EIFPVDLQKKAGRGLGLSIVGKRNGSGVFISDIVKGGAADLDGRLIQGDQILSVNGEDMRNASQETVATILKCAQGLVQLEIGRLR
Chain of Inadl_1, Q8NI35 (Q8NI35 113-229): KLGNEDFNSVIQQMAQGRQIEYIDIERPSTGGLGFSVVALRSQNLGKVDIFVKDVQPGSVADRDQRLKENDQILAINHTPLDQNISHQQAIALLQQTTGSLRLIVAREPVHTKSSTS
Chain of MAST1, Q9Y2H9 (Q9Y2H9 962-1065): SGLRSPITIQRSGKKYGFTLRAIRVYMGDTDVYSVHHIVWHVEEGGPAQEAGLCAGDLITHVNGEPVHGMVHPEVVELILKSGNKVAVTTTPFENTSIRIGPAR
Chain of PICK1, Q9NRD5 (Q9NRD5 17-115): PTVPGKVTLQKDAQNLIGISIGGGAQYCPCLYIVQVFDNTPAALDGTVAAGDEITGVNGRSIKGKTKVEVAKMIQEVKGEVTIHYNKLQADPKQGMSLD
Chain of HTRA1, Q92743 (Q92743 360-477): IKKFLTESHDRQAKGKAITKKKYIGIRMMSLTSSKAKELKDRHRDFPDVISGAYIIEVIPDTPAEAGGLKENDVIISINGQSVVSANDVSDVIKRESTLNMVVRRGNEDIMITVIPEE
Chain of GRIP2_5, Q9C0E4 (Q9C0E4 544-642): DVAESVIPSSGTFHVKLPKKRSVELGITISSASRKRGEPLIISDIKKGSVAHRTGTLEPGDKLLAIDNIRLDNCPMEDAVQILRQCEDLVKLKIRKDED
Chain of MAGI3_2, Q5TCQ9 (Q5TCQ9 398-503): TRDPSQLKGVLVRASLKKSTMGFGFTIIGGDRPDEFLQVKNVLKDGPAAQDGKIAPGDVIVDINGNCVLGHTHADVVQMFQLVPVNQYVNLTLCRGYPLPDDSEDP
Chain of DLG1_3, Q12959 (Q12959 457-571): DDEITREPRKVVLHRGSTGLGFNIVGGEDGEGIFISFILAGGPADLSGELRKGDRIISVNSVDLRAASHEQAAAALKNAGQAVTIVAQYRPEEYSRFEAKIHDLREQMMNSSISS
Chain of TJP1_2, Q07157 (Q07157 181-274): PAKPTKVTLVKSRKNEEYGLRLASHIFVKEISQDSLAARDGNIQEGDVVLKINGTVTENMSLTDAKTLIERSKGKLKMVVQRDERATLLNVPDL
Chain of MAGI1_1, Q96QZ7 (Q96QZ7 1-106): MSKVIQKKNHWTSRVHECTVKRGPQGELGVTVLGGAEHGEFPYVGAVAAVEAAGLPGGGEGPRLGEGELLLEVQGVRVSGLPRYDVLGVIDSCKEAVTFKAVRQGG
Chain of Inadl_4, Q8NI35 (Q8NI35 547-651): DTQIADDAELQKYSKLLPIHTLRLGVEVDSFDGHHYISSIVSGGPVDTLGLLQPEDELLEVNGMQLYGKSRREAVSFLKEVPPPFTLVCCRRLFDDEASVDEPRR
Chain of HTRA2, O43464 (O43464 355-458): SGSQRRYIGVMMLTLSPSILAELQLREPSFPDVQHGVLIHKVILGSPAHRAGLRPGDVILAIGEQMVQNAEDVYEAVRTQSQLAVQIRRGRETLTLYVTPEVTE
Chain of IL16_3, Q14005 (Q14005 1107-1207): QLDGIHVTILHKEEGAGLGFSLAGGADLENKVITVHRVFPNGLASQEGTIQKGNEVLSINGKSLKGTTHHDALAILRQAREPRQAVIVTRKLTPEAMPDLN
Chain of GRID2IP_2, A4D2P6 (A4D2P6 272-370): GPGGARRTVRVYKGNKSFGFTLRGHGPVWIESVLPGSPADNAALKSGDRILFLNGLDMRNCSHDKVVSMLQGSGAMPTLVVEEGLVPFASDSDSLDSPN
Chain of TJP1_3, Q07157 (Q07157 416-512): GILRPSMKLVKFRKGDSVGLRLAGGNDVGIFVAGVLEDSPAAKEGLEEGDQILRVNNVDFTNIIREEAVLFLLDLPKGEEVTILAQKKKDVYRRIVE
Chain of Inadl_5, Q8NI35 (Q8NI35 673-780): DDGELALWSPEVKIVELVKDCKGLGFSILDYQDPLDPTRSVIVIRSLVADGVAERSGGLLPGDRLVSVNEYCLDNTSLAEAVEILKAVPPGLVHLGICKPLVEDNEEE
Chain of GRIP2_4, Q9C0E4 (Q9C0E4 446-548): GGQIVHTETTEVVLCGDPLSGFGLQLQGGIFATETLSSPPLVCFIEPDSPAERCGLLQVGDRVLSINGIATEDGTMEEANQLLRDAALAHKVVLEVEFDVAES

EEPEERHTEL [CES2, O00748]
pKd [1, 30]: below the threshold | pKd [2, 30]: below the threshold | pKd [3, 30]: 3.52 | pKd [4, 30]: 4.64 | pKd [5, 30]: below the threshold | pKd [6, 30]: below the threshold | pKd [7, 30]: below the threshold | pKd [8, 30]: 4.74 | pKd [9, 30]: 4.46 | pKd [10, 30]: below the threshold | pKd [11, 30]: below the threshold | pKd [12, 30]: 3.53 | pKd [13, 30]: below the threshold | pKd [14, 30]: below the threshold | pKd [15, 30]: below the threshold | pKd [16, 30]: below the threshold | pKd [17, 30]: below the threshold | pKd [18, 30]: 4.36 | pKd [19, 30]: below the threshold | pKd [20, 30]: below the threshold | pKd [21, 30]: below the threshold | pKd [22, 30]: 3.5 | pKd [23, 30]: below the threshold | pKd [24, 30]: below the threshold | pKd [25, 30]: below the threshold | pKd [26, 30]: 3.86 | pKd [27, 30]: below the threshold | pKd [28, 30]: below the threshold | pKd [29, 30]: below the threshold

QGRWDHETIV [TMEM215, Q68D42]
pKd [1, 31]: below the threshold | pKd [2, 31]: below the threshold | pKd [3, 31]: 3.68 | pKd [4, 31]: 4.04 | pKd [5, 31]: below the threshold | pKd [6, 31]: 4.06 | pKd [7, 31]: below the threshold | pKd [8, 31]: 5.38 | pKd [9, 31]: below the threshold | pKd [10, 31]: below the threshold | pKd [11, 31]: 4.3 | pKd [12, 31]: 4.3 | pKd [13, 31]: 3.63 | pKd [14, 31]: below the threshold | pKd [15, 31]: below the threshold | pKd [16, 31]: 3.5 | pKd [17, 31]: 5.07 | pKd [18, 31]: 5 | pKd [19, 31]: 3.92 | pKd [20, 31]: 3.99 | pKd [21, 31]: 3.68 | pKd [22, 31]: below the threshold | pKd [23, 31]: 4.66 | pKd [24, 31]: below the threshold | pKd [25, 31]: below the threshold | pKd [26, 31]: below the threshold | pKd [27, 31]: below the threshold | pKd [28, 31]: below the threshold | pKd [29, 31]: below the threshold

RTRQRNETQV [HPV51-E6, P26554]
pKd [1, 32]: below the threshold | pKd [2, 32]: below the threshold | pKd [3, 32]: 4.54 | pKd [4, 32]: 3.69 | pKd [5, 32]: below the threshold | pKd [6, 32]: below the threshold | pKd [7, 32]: below the threshold | pKd [8, 32]: 4.85 | pKd [9, 32]: below the threshold | pKd [10, 32]: below the threshold | pKd [11, 32]: 4.65 | pKd [12, 32]: 4.23 | pKd [13, 32]: 3.4 | pKd [14, 32]: below the threshold | pKd [15, 32]: below the threshold | pKd [16, 32]: below the threshold | pKd [17, 32]: 3.61 | pKd [18, 32]: below the threshold | pKd [19, 32]: below the threshold | pKd [20, 32]: 3.72 | pKd [21, 32]: below the threshold | pKd [22, 32]: below the threshold | pKd [23, 32]: 5.83 | pKd [24, 32]: below the threshold | pKd [25, 32]: below the threshold | pKd [26, 32]: below the threshold | pKd [27, 32]: below the threshold | pKd [28, 32]: below the threshold | pKd [29, 32]: below the threshold
